# Measurements from patent US20230365662A1.
# Residue numbers refer to the chain shown, from its start. Numbers in names are those of the source. Where “and” joins values, the source holds several entries; their conditions need not be identical. Equal entries are not always repeated.
# B1: parental mouse (KB001) Fab FASEBA, VL variant L55R/S51G (Fab, V domains shown)
# VH: EVQLKQSGPGLVAPSQSLSITCTVSGFSLSIYSVHWVRQPPGKGLEWLGMIWGGGSSDYNSALKSRLSISKDNSKSQVFLKMNSLQTDDTAMYYCARNGNFYAMDYWGQGTSVTVSS
# VL: QIVLTQSPAIMSASLGERVTMTCTASSSVSSSFLHWYQQKPGSSPQLWIYGTSNRASGVPARFSGSGSGTSYSLTISSMEAEDAATYYCHQYHHSPYIYTFGGGTKLEIK
# B2: parental mouse (KB001) Fab FASEBA, VL variant L55Q (Fab, V domains shown)
# VH: B1 VH
# VL: B1 VL with G51S, R55Q
# B3: parental mouse (KB001) Fab FASEBA, VL variant L55H (Fab, V domains shown)
# VH: B1 VH
# VL: B1 VL with G51S, R55H
# B4: parental mouse (KB001) Fab FASEBA, VL variant L55S (Fab, V domains shown)
# VH: B1 VH
# VL: B1 VL with G51S, R55S
# B5: parental mouse (KB001) Fab FASEBA, VL variant A56T (Fab, V domains shown)
# VH: B1 VH
# VL: B1 VL with G51S, R55L, A56T
# B6: parental mouse (KB001) Fab FASEBA, VL variant A56N (Fab, V domains shown)
# VH: B1 VH
# VL: B1 VL with G51S, R55L, A56N
# B7: parental mouse (KB001) Fab FASEBA, VL variant A56Q (Fab, V domains shown)
# VH: B1 VH
# VL: B1 VL with G51S, R55L, A56Q
# B8: parental mouse (KB001) Fab FASEBA, VL variant A56R (Fab, V domains shown)
# VH: B1 VH
# VL: B1 VL with G51S, R55L, A56R
# B9: parental mouse (KB001) Fab FASEBA, VL variant A56V (Fab, V domains shown)
# VH: B1 VH
# VL: B1 VL with G51S, R55L, A56V
# B10: parental mouse (KB001) Fab FASEBA, VL variant A56S (Fab, V domains shown)
# VH: B1 VH
# VL: B1 VL with G51S, R55L, A56S
# B11: parental mouse (KB001) Fab FASEBA, VL variant A56P (Fab, V domains shown)
# VH: B1 VH
# VL: B1 VL with G51S, R55L, A56P
# B12: parental mouse (KB001) Fab FASEBA, VL variant A56M (Fab, V domains shown)
# VH: B1 VH
# VL: B1 VL with G51S, R55L, A56M
# B13: parental mouse (KB001) Fab FASEBA, VL variant S57A (Fab, V domains shown)
# VH: B1 VH
# VL: B1 VL with G51S, R55L, S57A
# B14: parental mouse (KB001) Fab FASEBA, VL variant S57L (Fab, V domains shown)
# VH: B1 VH
# VL: B1 VL with G51S, R55L, S57L
# B15: parental mouse (KB001) Fab FASEBA, VL variant S57F (Fab, V domains shown)
# VH: B1 VH
# VL: B1 VL with G51S, R55L, S57F
# B16: parental mouse (KB001) Fab FASEBA, VL variant S57I (Fab, V domains shown)
# VH: B1 VH
# VL: B1 VL with G51S, R55L, S57I
# B17: parental mouse (KB001) Fab FASEBA, VL variant S57Q (Fab, V domains shown)
# VH: B1 VH
# VL: B1 VL with G51S, R55L, S57Q
# B18: parental mouse (KB001) Fab FASEBA, VL variant S57N (Fab, V domains shown)
# VH: B1 VH
# VL: B1 VL with G51S, R55L, S57N
# B19: parental mouse (KB001) Fab FASEBA, VL variant S57K (Fab, V domains shown)
# VH: B1 VH
# VL: B1 VL with G51S, R55L, S57K
# B20: parental mouse (KB001) Fab FASEBA, VL variant S57W (Fab, V domains shown)
# VH: B1 VH
# VL: B1 VL with G51S, R55L, S57W
# B21: parental mouse (KB001) Fab FASEBA, VL variant S57E (Fab, V domains shown)
# VH: B1 VH
# VL: B1 VL with G51S, R55L, S57E
# B22: parental mouse (KB001) Fab FASEBA, VL variant S57R (Fab, V domains shown)
# VH: B1 VH
# VL: B1 VL with G51S, R55L, S57R
# B23: parental mouse (KB001) Fab FASEBA, VL variant S57M (Fab, V domains shown)
# VH: B1 VH
# VL: B1 VL with G51S, R55L, S57M
# B24: parental mouse (KB001) Fab FASEBA, VL variant H90L (Fab, V domains shown)
# VH: B1 VH
# VL: B1 VL with G51S, R55L, H90L
# B25: parental mouse (KB001) Fab FASEBA, VL variant H90W (Fab, V domains shown)
# VH: B1 VH
# VL: B1 VL with G51S, R55L, H90W
# B26: parental mouse (KB001) Fab FASEBA, VL variant Q91M (Fab, V domains shown)
# VH: B1 VH
# VL: B1 VL with G51S, R55L, Q91M
# B27: parental mouse (KB001) Fab FASEBA, VL variant Q91E (Fab, V domains shown)
# VH: B1 VH
# VL: B1 VL with G51S, R55L, Q91E
# B28: parental mouse (KB001) Fab FASEBA, VL variant Y92D (Fab, V domains shown)
# VH: B1 VH
# VL: B1 VL with G51S, R55L, Y92D
# B29: parental mouse (KB001) Fab FASEBA, VL variant Y92N (Fab, V domains shown)
# VH: B1 VH
# VL: B1 VL with G51S, R55L, Y92N
# B30: parental mouse (KB001) Fab FASEBA, VL variant H93N (Fab, V domains shown)
# VH: B1 VH
# VL: B1 VL with G51S, R55L, H93N
# B31: parental mouse (KB001) Fab FASEBA, VL variant H94Y (Fab, V domains shown)
# VH: B1 VH
# VL: B1 VL with G51S, R55L, H94Y
# B32: parental mouse (KB001) Fab FASEBA, VL variant H94F (Fab, V domains shown)
# VH: B1 VH
# VL: B1 VL with G51S, R55L, H94F
# B33: parental mouse (KB001) Fab FASEBA, VL variant S95F (Fab, V domains shown)
# VH: B1 VH
# VL: B1 VL with G51S, R55L, S95F
# B34: parental mouse (KB001) Fab FASEBA, VL variant S95E (Fab, V domains shown)
# VH: B1 VH
# VL: B1 VL with G51S, R55L, S95E
# B35: parental mouse (KB001) Fab FASEBA, VL variant S95Q (Fab, V domains shown)
# VH: B1 VH
# VL: B1 VL with G51S, R55L, S95Q
# B36: parental mouse (KB001) Fab FASEBA, VL variant S95W (Fab, V domains shown)
# VH: B1 VH
# VL: B1 VL with G51S, R55L, S95W
# B37: parental mouse (KB001) Fab FASEBA, VL variant S95N (Fab, V domains shown)
# VH: B1 VH
# VL: B1 VL with G51S, R55L, S95N
# B38: parental mouse (KB001) Fab FASEBA, VL variant S95A (Fab, V domains shown)
# VH: B1 VH
# VL: B1 VL with G51S, R55L, S95A
# B39: parental mouse (KB001) Fab FASEBA, VL variant S95T (Fab, V domains shown)
# VH: B1 VH
# VL: B1 VL with G51S, R55L, S95T
# B40: parental mouse (KB001) Fab FASEBA (Fab, V domains shown)
# VH: B1 VH
# VL: B1 VL with G51S, R55L
# B41: parental mouse (KB001) Fab FASEBA, VL variant S95I (Fab, V domains shown)
# VH: B1 VH
# VL: B1 VL with G51S, R55L, S95I
# Molecular target: HRgpA-6H (Porphyromonas gingivalis) (UniProt P28784)
# Sequence of UniProt P28784 (P28784 228-991 limits assumed): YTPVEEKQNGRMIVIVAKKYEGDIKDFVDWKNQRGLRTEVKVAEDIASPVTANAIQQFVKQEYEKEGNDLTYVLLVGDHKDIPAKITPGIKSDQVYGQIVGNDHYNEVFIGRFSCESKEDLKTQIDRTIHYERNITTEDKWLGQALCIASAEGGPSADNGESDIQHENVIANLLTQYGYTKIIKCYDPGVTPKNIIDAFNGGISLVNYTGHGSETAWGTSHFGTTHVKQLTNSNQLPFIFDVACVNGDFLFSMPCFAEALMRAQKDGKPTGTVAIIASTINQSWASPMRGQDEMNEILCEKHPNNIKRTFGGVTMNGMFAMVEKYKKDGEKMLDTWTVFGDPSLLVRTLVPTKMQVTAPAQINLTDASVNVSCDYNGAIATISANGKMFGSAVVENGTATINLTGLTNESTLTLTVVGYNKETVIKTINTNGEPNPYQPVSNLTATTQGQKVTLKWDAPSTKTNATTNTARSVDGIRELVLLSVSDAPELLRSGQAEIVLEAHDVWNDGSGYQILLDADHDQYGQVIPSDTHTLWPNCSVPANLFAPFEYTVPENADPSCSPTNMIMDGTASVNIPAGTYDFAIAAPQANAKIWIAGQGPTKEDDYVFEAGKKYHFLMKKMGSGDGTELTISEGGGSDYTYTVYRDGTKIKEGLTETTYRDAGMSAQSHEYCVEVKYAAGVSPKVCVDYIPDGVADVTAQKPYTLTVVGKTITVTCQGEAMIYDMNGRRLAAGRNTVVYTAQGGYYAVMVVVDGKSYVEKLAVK
# Assay: ELISA, Fab FASEBA supernatant on coated HRgpA-6H
Binder,OD450nm,Ratio OD(Variant)/OD(WT)
B1,0.748 OD450nm,0.955 ratio to WT
B2,0.662 OD450nm,0.845 ratio to WT
B3,0.64 OD450nm,0.817 ratio to WT
B4,0.655 OD450nm,0.836 ratio to WT
B5,0.731 OD450nm,0.896 ratio to WT
B6,0.712 OD450nm and 0.775 OD450nm,0.873 ratio to WT and 0.95 ratio to WT
B7,0.705 OD450nm,0.865 ratio to WT
B8,0.728 OD450nm and 0.734 OD450nm and 0.751 OD450nm,0.893 ratio to WT and 0.9 ratio to WT and 0.921 ratio to WT
B9,0.794 OD450nm and 0.795 OD450nm,0.974 ratio to WT and 0.975 ratio to WT
B10,0.772 OD450nm and 0.751 OD450nm and 0.774 OD450nm,0.947 ratio to WT and 0.921 ratio to WT and 0.949 ratio to WT
B11,0.748 OD450nm,0.917 ratio to WT
B12,0.802 OD450nm and 0.701 OD450nm,0.983 ratio to WT and 0.86 ratio to WT
B13,0.806 OD450nm,0.988 ratio to WT
B14,0.781 OD450nm,0.958 ratio to WT
B15,0.785 OD450nm and 0.787 OD450nm and 0.797 OD450nm,0.963 ratio to WT and 0.965 ratio to WT and 0.977 ratio to WT
B16,0.791 OD450nm,0.97 ratio to WT
B17,0.658 OD450nm,0.807 ratio to WT
B18,0.813 OD450nm,0.997 ratio to WT
B19,0.712 OD450nm,0.873 ratio to WT
B20,0.784 OD450nm,0.961 ratio to WT
B21,0.751 OD450nm,0.921 ratio to WT

Binder,OD450nm,Ratio OD(Variant)/OD(WT)
B22,0.746 OD450nm,0.915 ratio to WT
B23,0.745 OD450nm,0.914 ratio to WT
B24,0.785 OD450nm and 0.694 OD450nm,0.911 ratio to WT and 0.806 ratio to WT
B25,0.763 OD450nm,0.886 ratio to WT
B26,0.757 OD450nm,0.879 ratio to WT
B27,0.709 OD450nm and 0.694 OD450nm and 0.701 OD450nm,0.823 ratio to WT and 0.806 ratio to WT and 0.814 ratio to WT
B28,0.758 OD450nm,0.805 ratio to WT
B29,0.773 OD450nm,0.821 ratio to WT
B30,0.857 OD450nm,0.91 ratio to WT
B31,0.865 OD450nm,0.942 ratio to WT
B32,0.77 OD450nm,0.838 ratio to WT
B33,0.837 OD450nm,0.911 ratio to WT
B34,0.855 OD450nm and 0.82 OD450nm,0.931 ratio to WT and 0.893 ratio to WT
B35,0.893 OD450nm,0.972 ratio to WT
B36,0.804 OD450nm and 0.79 OD450nm,0.875 ratio to WT and 0.86 ratio to WT
B37,0.863 OD450nm and 0.884 OD450nm,0.94 ratio to WT and 0.962 ratio to WT
B38,0.83 OD450nm and 0.872 OD450nm,0.904 ratio to WT and 0.949 ratio to WT
B39,0.871 OD450nm,0.948 ratio to WT
B40,0.9 OD450nm and 0.889 OD450nm,0.98 ratio to WT and 0.968 ratio to WT
B41,0.846 OD450nm and 0.817 OD450nm and 0.791 OD450nm,0.921 ratio to WT and 0.889 ratio to WT and 0.861 ratio to WT
